Laboratory results taken from patent US20240317834A1, “COMPOSITIONS AND METHODS FOR NEUROLOGICAL DISEASES” (CODA BIOTHERAPEUTICS, INC., priority 2020, published 2024).

Test system: Lenti-X 293T cells
Assay: YFP fluorescence quenching anion reporter plate reader assay of engineered receptors stimulated with acetylcholine or a non-native ligand
Format: cell-based
Settings: for percent quench of YFP fluorescence, 10 uM ach: acetylcholine 10 uM; for percent quench of YFP fluorescence, 100 uM ach: acetylcholine 100 uM; for percent quench of YFP fluorescence, 1 mM ach: acetylcholine 1 mM; for percent quench of YFP fluorescence, 3 mM ach: acetylcholine 3 mM
Method in brief: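 YFP quench was followed for about 1 min 43 s after ligand delivered in iodide-based ECS, pH 7.2. Values are end-of-read fluorescence (last 10 s) divided by the pre-ligand baseline (15 s). Cells were LX293T, transfected with receptor DNA a day before the assay.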

B1: CODA75: non-responding chimeric engineered receptor used as the negative control (protein)
chain: MRCSPGGVWLALAASLLHVSLQGEFQRKLYKELVKNYNPLERPVANDSQPLTVYFSLSLLQIMDVDEKNQVLTTNIWLQMSWTDHYLQWNVSEYPGVKTVRFPDGQIWKPDILLYNSADERFDATFHTNVLVNSSGHCQYLPPGIFKSSCYIDVRWFPFDVQHCKLKFGSWSYGGWSLDLQMQEADISGYIPNGEWDLVGIPGKRSERFYECCKEPYPDVTFTVTMRRRTGYYLIQMYIPSLLIVILSWISFWINMDAAPARVGLGITTVLTMTTQSSGSEIMPATSDSVPLIAQAIDIWMAVCLLFVFSALLEYAAVNFVSRQHKELLRFRRKRRHHKSPMLNLFQEDEAGEGRFNFSAYGMGPACLQAKDGISVKGANNSNTTNPPPAPSKSPEEMRKLFIQRAKKIDKISRIGFPMAFLIFNMFYWIIYKIVRREDVHNQ
modifications: synthetic sequence of chimeric LGIC
notes: non-responding chimeric engineered receptor used as the negative control
1 nM CNL001, first column
  YFP fluorescence quenching using CNL001: −8.496%
1 nM CNL001, second column
  YFP fluorescence quenching using CNL001: −2.266%
1 nM brd
  YFP fluorescence quenching using TC-5619/Bradanicline: −13.39%
3 nM brd
  YFP fluorescence quenching using TC-5619/Bradanicline: −15.78%
3 nM var, first column
  YFP fluorescence quenching using Varenicline: 4.161
3 nM var, second column
  YFP fluorescence quenching using Varenicline: −6.216
10 nM CNL001, first column
  YFP fluorescence quenching using CNL001: 1.816%
10 nM CNL001, second column
  YFP fluorescence quenching using CNL001: −4.649%
10 nM brd
  YFP fluorescence quenching using TC-5619/Bradanicline: −13.47%
30 nM brd
  YFP fluorescence quenching using TC-5619/Bradanicline: −16.41%
30 nM fac
  YFP fluorescence quenching using Facinicline: −11.68
30 nM var, first column
  YFP fluorescence quenching using Varenicline: −5.173
30 nM var, second column
  YFP fluorescence quenching using Varenicline: −6.593
50 nM CNL001, first column
  YFP fluorescence quenching using CNL001: −5.922%
50 nM CNL001, second column
  YFP fluorescence quenching using CNL001: −5.597%
50 nM abt
  YFP fluorescence quenching using ABT-126: −17.07%
100 nM CNL001, first column
  YFP fluorescence quenching using CNL001: −8.159%
100 nM CNL001, second column
  YFP fluorescence quenching using CNL001: −5.058%
100 nM CNL002
  YFP fluorescence quenching using CNL002: −7.94%
100 nM abt
  YFP fluorescence quenching using ABT-126: −16.76%
100 nM azd0328
  YFP fluorescence quenching using AZD-0328: −8.83%
100 nM fac
  YFP fluorescence quenching using Facinicline: 4.35
300 nM abt
  YFP fluorescence quenching using ABT-126: −16.76%
300 nM azd0328
  YFP fluorescence quenching using AZD-0328: −11.15%
300 nM brd
  YFP fluorescence quenching using TC-5619/Bradanicline: −17.56%
300 nM fac
  YFP fluorescence quenching using Facinicline: −10.55
300 nM var, first column
  YFP fluorescence quenching using Varenicline: −5.733
300 nM var, second column
  YFP fluorescence quenching using Varenicline: −7.312
500 nM abt
  YFP fluorescence quenching using ABT-126: −14.68%
500 nM var, first column
  YFP fluorescence quenching using Varenicline: −10.35
500 nM var, second column
  YFP fluorescence quenching using Varenicline: −7.586
1 uM CNL001, first column
  YFP fluorescence quenching using CNL001: −4.272%
1 uM CNL001, second column
  YFP fluorescence quenching using CNL001: −1.281%
1 uM CNL002
  YFP fluorescence quenching using CNL002: −9.81%
1 uM abt
  YFP fluorescence quenching using ABT-126: −16%
1 uM tc6987
  YFP fluorescence quenching using TC-6987: −11.79
1 uM var, first column
  YFP fluorescence quenching using Varenicline: −5.637
1 uM var, second column
  YFP fluorescence quenching using Varenicline: −3.757
3 uM abt
  YFP fluorescence quenching using ABT-126: −14.11%
10 uM abt
  YFP fluorescence quenching using ABT-126: −13.98%
10 uM tc6987
  YFP fluorescence quenching using TC-6987: −14.31
30 uM CNL002
  YFP fluorescence quenching using CNL002: −15.27%
30 uM abt
  YFP fluorescence quenching using ABT-126: −21.05%
30 uM azd0328
  YFP fluorescence quenching using AZD-0328: −11.92%
30 uM fac
  YFP fluorescence quenching using Facinicline: −5.25
50 uM abt
  YFP fluorescence quenching using ABT-126: −21.35%
100 uM abt
  YFP fluorescence quenching using ABT-126: −24.12%
500 uM tc6987
  YFP fluorescence quenching using TC-6987: −19.65
  percent quench of YFP fluorescence, 10 uM ach: −12.88%
  percent quench of YFP fluorescence, 100 uM ach: −14.46%
  percent quench of YFP fluorescence, 1 mM ach: −16.46%
  percent quench of YFP fluorescence, 3 mM ach: −12.38%
Acetylcholine 30 uM
  percent quench of YFP fluorescence, 30 uM ach: −18.67%
Acetylcholine 50 uM
  percent quench of YFP fluorescence, 50 uM ach: −0.29%
Acetylcholine 300 uM
  percent quench of YFP fluorescence, 300 uM ach: −16.31%
Acetylcholine 500 uM
  percent quench of YFP fluorescence, 500 uM ach: −17.41%
Acetylcholine 5 mM
  percent quench of YFP fluorescence, 5 mM ach: −20.88%
Acetylcholine 10 mM
  percent quench of YFP fluorescence, 10 mM ach: −8.69%

B2: CODA217: engineered chimeric LGIC receptor, W77F in SEQ ID NO: 33 (protein)
chain: MRCSPGGVWLALAASLLHVSLQGEFQRKLYKELVKNYNPLERPVANDSQPLTVYFSLSLLQIMDVDEKNQVLTTNIFLQMSWTDHYLQWNVSEYPGVKTVRFPDGQIWKPDILLYNSADERFDATFHTNVLVNSSGHCQYLPPGIFKSSCPMDLKNFPMDVQTCKLKFGSWSYGGWSLDLQMQEADISGYIPNGEWDLVGIPGKRSERFYECCKEPYPDVTFTVTMRRRMGYYLIQMYIPSLLIVILSWISFWINMDAAPARVGLGITTVLTMTTQSSGSRASLPKVSYVKAIDIWMAVCLLFVFSALLEYAAVNFVSRQHKELLRFRRKRRHHKSPMLNLFQEDEAGEGRFNFSAYGMGPACLQAKDGISVKGANNSNTTNPPPAPSKSPEEMRKLFIQRAKKIDKISRIGFPMAFLIFNMFYWIIYKIVRREDVHNQ
modifications: synthetic sequence of chimeric LGIC
1 nM CNL001, first column
  YFP fluorescence quenching using CNL001: −22.273%
1 nM CNL001, second column
  YFP fluorescence quenching using CNL001: −19.415%
3 nM brd
  YFP fluorescence quenching using TC-5619/Bradanicline: −12.1%
3 nM var, first column
  YFP fluorescence quenching using Varenicline: 5.662
3 nM var, second column
  YFP fluorescence quenching using Varenicline: 7.57
10 nM CNL001, first column
  YFP fluorescence quenching using CNL001: −9.563%
10 nM CNL001, second column
  YFP fluorescence quenching using CNL001: 6.398%
30 nM brd
  YFP fluorescence quenching using TC-5619/Bradanicline: −14.72%
30 nM fac
  YFP fluorescence quenching using Facinicline: −10.14
30 nM var, first column
  YFP fluorescence quenching using Varenicline: 13.968
30 nM var, second column
  YFP fluorescence quenching using Varenicline: 19.079
50 nM CNL001, first column
  YFP fluorescence quenching using CNL001: 61.938%
50 nM CNL001, second column
  YFP fluorescence quenching using CNL001: 66.837%
50 nM abt
  YFP fluorescence quenching using ABT-126: 37.81%
100 nM CNL001, first column
  YFP fluorescence quenching using CNL001: 79.791%
100 nM CNL001, second column
  YFP fluorescence quenching using CNL001: 80.908%
100 nM CNL002
  YFP fluorescence quenching using CNL002: 67.81%
100 nM abt
  YFP fluorescence quenching using ABT-126: 57.31%
100 nM azd0328
  YFP fluorescence quenching using AZD-0328: −7.57%
300 nM abt
  YFP fluorescence quenching using ABT-126: 12.61%
300 nM azd0328
  YFP fluorescence quenching using AZD-0328: 7.08%
300 nM brd
  YFP fluorescence quenching using TC-5619/Bradanicline: −6.3%
300 nM fac
  YFP fluorescence quenching using Facinicline: 68.29
300 nM var, first column
  YFP fluorescence quenching using Varenicline: 16.183
300 nM var, second column
  YFP fluorescence quenching using Varenicline: 18.025
500 nM var, first column
  YFP fluorescence quenching using Varenicline: 23.366
500 nM var, second column
  YFP fluorescence quenching using Varenicline: 19.206
1 uM CNL001, first column
  YFP fluorescence quenching using CNL001: 83.444%
1 uM CNL001, second column
  YFP fluorescence quenching using CNL001: 83.905%
1 uM CNL002
  YFP fluorescence quenching using CNL002: 69.42%
1 uM abt
  YFP fluorescence quenching using ABT-126: 66.05%
1 uM tc6987
  YFP fluorescence quenching using TC-6987: −10.35
1 uM var, first column
  YFP fluorescence quenching using Varenicline: 34.69
1 uM var, second column
  YFP fluorescence quenching using Varenicline: 30.504
10 uM tc6987
  YFP fluorescence quenching using TC-6987: −13.93
30 uM CNL002
  YFP fluorescence quenching using CNL002: 73.64%
30 uM azd0328
  YFP fluorescence quenching using AZD-0328: 81.59%
30 uM fac
  YFP fluorescence quenching using Facinicline: 87.35
500 uM tc6987
  YFP fluorescence quenching using TC-6987: −7.54
  percent quench of YFP fluorescence, 10 uM ach: −5.86%
  percent quench of YFP fluorescence, 100 uM ach: 70.06%
  percent quench of YFP fluorescence, 1 mM ach: 68.71%
  percent quench of YFP fluorescence, 3 mM ach: 73.45%
